Article PMC9907810 (2023)

Target: SARS-CoV-2 receptor-binding domain (RBD), prototype (Wuhan-Hu-1), Avi-tagged and biotinylated (SARS-CoV-2)
Experiment: BLI

B1: Ab08 single-chain fragment variable (scFv) (scFv, V domains shown)
VH: QVQLVQSGAEVKKPGSSVKVSCKASGGTFSSYTISWVRQAPGQGLEWMGGIIPILGTTNYAQKFQGRVTITADESTSTAYMELSSLRSEDTAVYYCARKFGYSGYGATWYFDLWGRGTLVTVSS
VL: QSVLTQPPSVSGAPGQRVTISCTGNSSNIGAGYDVHWYQQFPGTAPKLLIYGNSNRPSGVPDRFSGSKSGTSASLAITGLQAEDEADYYCQSYDSSLSGSVFGGGTKLTVL
- koff: 7.5e-05 s⁻¹
